These results are taken from patent US20140088008A1 (Amgen, published 2014).

One assay addresses T1, activin A (UniProt P08476 311-426).
T1 sequence (looked up): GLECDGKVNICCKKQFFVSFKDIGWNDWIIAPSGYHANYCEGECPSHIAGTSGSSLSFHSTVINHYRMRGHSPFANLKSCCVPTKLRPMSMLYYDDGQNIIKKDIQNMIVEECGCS
The assay is described as follows: cell-based or functional assay.

In another assay the target is T2, GDF-11 (UniProt O95390 299-407).
T2 sequence (looked up): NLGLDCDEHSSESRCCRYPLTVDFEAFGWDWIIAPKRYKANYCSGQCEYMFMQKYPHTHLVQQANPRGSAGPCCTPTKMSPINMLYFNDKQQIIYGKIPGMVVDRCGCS
The assay is described as follows: cell-based or functional assay.

The target in assay [1] is T3, myostatin (UniProt O14793 267-375, limits assumed).
T3 sequence (looked up): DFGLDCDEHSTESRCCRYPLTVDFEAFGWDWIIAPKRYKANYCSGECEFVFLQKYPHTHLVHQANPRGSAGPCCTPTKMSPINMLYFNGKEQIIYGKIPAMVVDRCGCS
The experiment in a line: cell-based or functional assay.

The target in assay [2] is T3, myostatin. The assay is described as follows: BIAcore solution competition: soluble receptor titrated against 4 nM myostatin, free myostatin captured on immobilized human ActRIIB-ECD/Fc (R&D Systems) on a CM5 chip. The protocol: Blocking assays were carried out using immobilized human ActRIIB-ECD/Fc (R&D Systems, Minneapolis, Mn.) on a CM5 chip (Biacore, Inc., Piscataway, N.J.) in the presence and absence of each of the two soluble receptors ActRIIB-ECD/Fc and ActRIIB5/Fc using the BIAcore® assay system according to the manufacturer's instructions.
100% myostatin binding signal was determined in the absence of receptor in solution. Various concentrations of the soluble receptors were diluted in sample buffer and incubated with 4 nM myostatin before being injected over the receptor surface. Since only free myostatin molecules were able to bind to the chip, a decreased binding response with increasing concentration of the receptors indicated binding of the receptors to myostatin in solution. Plotting the binding signal vs. concentration of soluble receptor, ActRIIB-ECD/Fc and ActRIIB5/Fc were calculated to have an EC₅₀ of approximately 18 nM and 7 nM respectively.
A general note: SPR reads the build-up and loss of mass on a sensor chip optically.

B1: huActRIIB-ECD/Fc (Fc fusion)
chain: SGRGEAETRECIYYNANWELERTNQSGLERCEGEQDKRLHCYASWRNSSGTIELVKKGCWLDDFNCYDRQECVATEENPQVYFCCCEGNFCNERFTHLPEAGGPEV
notes: not shown: human IgG1 Fc, fused directly (no linker)
For orientation: EC50 means the concentration at which the effect is half-maximal. Take B1: in the assay with activin A, the “activin A neutralizing activity IC50 (nM) vs. 20 nM activin; pMARE-luc C2C12 luciferase reporter” value amounted to 340 nM. In addition, in the assay with GDF-11, the “GDF-11-neutralizing activity IC50 (nM) vs. 4 nM GDF-11; pMARE-luc C2C12 luciferase reporter” value turned out to be 89.9 nM. Moreover, in the assay with myostatin [1], the “myostatin-neutralizing activity IC50 (nM) vs. 4 nM myostatin; pMARE-luc C2C12 luciferase reporter” value amounted to 51.1 nM. Further, the EC50 in the assay with myostatin [2] was ~18 nM.

B2: huActRIIB5/Fc (Fc fusion)
chain: SGRGEAETRECIYYNANWELERTNQSGLERCEGEQDKRLHCYASWRNSSGTIELVKKGCWLDDFNCYDRQECVATEENPQVYFCCCEGNFCNERFTHLPEAGGPEGPWASTTIPSGGPEATAAAGDQGSGALWLCLEGPAHEGGGGGGGG
notes: also called human activin type IIB5 receptor Fc fusion; not shown: human IgG1 Fc
For B2, the “activin A neutralizing activity IC50 (nM) vs. 20 nM activin; pMARE-luc C2C12 luciferase reporter” value with activin A amounted to 156 nM. Moreover, the “GDF-11-neutralizing activity IC50 (nM) vs. 4 nM GDF-11; pMARE-luc C2C12 luciferase reporter” value with GDF-11 stood at 90.6 nM. For the same molecule, the “myostatin-neutralizing activity IC50 (nM) vs. 4 nM myostatin; pMARE-luc C2C12 luciferase reporter” value with myostatin [1] turned out to be 29.7 nM. Also, the EC50 in the assay with myostatin [2] is ~7 nM.
